Assay [1] deals with T1, recombinant human IL-23 (p19/p40) (human, UniProt Q9NPF7 20-189; P29460 23-328).
T1 construct: Bought heterodimer (R&D Systems or eBioscience); biotinylated in the alpha-screens; also called hIL-23
T1 sequence (looked up) 1: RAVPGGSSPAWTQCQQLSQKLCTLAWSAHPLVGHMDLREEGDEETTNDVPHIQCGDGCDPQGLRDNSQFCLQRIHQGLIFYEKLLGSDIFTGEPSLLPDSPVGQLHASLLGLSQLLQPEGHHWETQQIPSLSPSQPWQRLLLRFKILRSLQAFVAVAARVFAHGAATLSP
T1 sequence (looked up) 2: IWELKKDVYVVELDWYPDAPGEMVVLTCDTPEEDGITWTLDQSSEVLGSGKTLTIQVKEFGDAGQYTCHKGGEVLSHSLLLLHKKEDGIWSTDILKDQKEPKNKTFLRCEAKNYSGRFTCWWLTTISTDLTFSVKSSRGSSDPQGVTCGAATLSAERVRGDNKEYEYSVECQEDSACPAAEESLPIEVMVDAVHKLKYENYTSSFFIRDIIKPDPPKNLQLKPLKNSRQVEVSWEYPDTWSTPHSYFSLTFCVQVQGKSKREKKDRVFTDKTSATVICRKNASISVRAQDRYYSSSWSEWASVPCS
Kind of assay: inhibition ELISA, hIL-23/hIL-23R-Fc. For orientation: In an ELISA, binding on a coated surface is turned into a signal by an enzyme label.
Protocol: (§1) Visualisation was performed with enhanced soluble 3,3′,5,5′-tetramethylbenzidine (esTMB) colouring reagent, after which the coloring reaction was stopped with 1N HCl. The absorbance was measured at 450 nm.

Assay [2] addresses T1, recombinant human IL-23 (p19/p40). Kind of assay: cell-based or functional assay.
Assay [3] has the same target. Nature of the assay: cell-based or functional assay. This is another data set of the same source.
Assay [4] has as its target cynomolgus IL-23 (cynomolgus). Kind of assay: cell-based or functional assay.
Assay [5] has as its target T1, recombinant human IL-23 (p19/p40). Nature of the assay: SPR Biacore, hIL-23.
For assay [6] the target is unchanged. Nature of the assay: SPR Biacore, hIL-23. The source holds these as a separate data set. For orientation: SPR reads the build-up and loss of mass on a sensor chip optically.
The target is the same in assay [7]. Kind of assay: SPR Biacore, eBiosc hIL-23.
For assay [8] the target is unchanged. Nature of the assay: inhibition ELISA, hIL-23/hIL-23R-Fc. The source holds these as a separate data set.
Protocol: as §1
The target is the same in assay [9]. Nature of the assay: SPR Biacore, hIL-23 on chip.
Protocol: Nanobody binding was assessed at one concentration (100 nM). Each Nanobody was injected for 4 minutes at a flow rate of 45 μl/min to allow binding to chip-bound antigen. Next, binding buffer without Nanobody was sent over the chip at the same flow rate to allow spontaneous dissociation of bound Nanobody.
The target of assay [10] is T2, cynomolgus IL-23 (cynomolgus).
T2 construct: also called cyno IL-23; cIL-23
Kind of assay: alpha-screen, cyno IL-23/IL-23R-Fc.
Protocol: (§2) Human IL-23R-Fc chimera and hIL12Rbeta1-Fc chimera (R&D Systems, Minneapolis, Minn., US) were coupled to acceptor beads according to manufacturer instructions (Perkin Elmer, Waltham, Mass., US).
(§3) To this mixture, the IL-23R acceptor beads and the streptavidin donor beads were added and further incubated for 1 hour at RT.

The target of assay [11] is T1, recombinant human IL-23 (p19/p40). Kind of assay: cell-based or functional assay. The source holds these as a separate data set.
For assay [12], the target named is T2, cynomolgus IL-23. Nature of the assay: cell-based or functional assay. The source holds these as a separate data set.
Assay [13] concerns the target T1, recombinant human IL-23 (p19/p40). Kind of assay: alpha-screen, hIL-23/IL-23R-Fc. Background: In Alpha technology, singlet oxygen from a donor bead excites a nearby acceptor bead.
Protocol: as §2, §3
Assay [14] deals with T2, cynomolgus IL-23. Kind of assay: SPR Biacore, cyno IL-23 on chip.
The target in assay [15] is T1, recombinant human IL-23 (p19/p40). Kind of assay: cell-based or functional assay. This is another data set of the same source.
For assay [16] the target is unchanged. Kind of assay: SPR Biacore, hIL-23 on chip, several concentrations.
The target is the same in assay [17]. Nature of the assay: 'potency assay', not specified (probably the inhibition ELISA of Example 34).
Assay [18] has the same target. Nature of the assay: comp alpha-screen hIL-23.
Assay [19] has the same target. Nature of the assay: cell-based or functional assay. The source holds these as a separate data set.
The target in assay [20] is T2, cynomolgus IL-23. Nature of the assay: cell-based or functional assay. The source holds these as a separate data set.
The target of assay [21] is T1, recombinant human IL-23 (p19/p40). Nature of the assay: SPR Biacore, hIL-23; kd2 200-1000 s.
The target is the same in assay [22]. Nature of the assay: alpha-screen, hIL-23/hIL-23R.
For assay [23], the target named is T2, cynomolgus IL-23. Kind of assay: alpha-screen, cIL-23/hIL-23R.
In assay [24] the target is T1, recombinant human IL-23 (p19/p40). Kind of assay: SPR Biacore, hIL-23; kd1 125-155 s.
Assay [25] has the same target. Nature of the assay: cell-based or functional assay. This is another data set of the same source.
For assay [26], the target named is T2, cynomolgus IL-23. Kind of assay: cell-based or functional assay. The source holds these as a separate data set.

Substitutions are numbered along the chain they refer to. Where two headings read alike, the source gives them in different places.

B1: P23IL119A3V16-35GS-81G2V11-GGGC-PEG40 linear (bispecific antibody)
chain: EVQLLESGGGLVQPGGSLRLSCAASGRIFSLPASGNIFNLLTIAWYRQAPGKGRELVATINSGSRTYYADSVKGRFTISRDNSKKTLYLQMNSLRPEDTAVYYCQTSGSGSPNFWGQGTLVTVSSGGGGSGGGGSGGGGSGGGGSGGGGSGGGGSGGGGSEVQLLESGGGLVQPGGSLRLSCAASGLPFSTKSMGWFRQAPGKGREFVSRISPGGTSRYYGDFVKGRFTISRDNSKNTLYLQMNSLRAEDTAVYYCASGERSTYIGSNYYRTNEYDYWGQGTLVTVSSGGGC
modifications: linear mPEG40 (maleimide) on the C-terminal Cys of GGGC
notes: also called P23IL0063; 23IL0063
As to B1, in assay [1], the 50% inhibitory concentration (IC50) (in general, the point on the concentration scale where inhibition reaches its midpoint) was found to be 0.025 nM. For the same molecule, the “IC50, BA/F3 proliferation assay, 76 pM hIL-23” value in assay [2] was 71 pM. Further, the “IC50, splenocyte assay, 19 pM hIL-23” value in [3] turned out to be 2.7 pM. Moreover, the “IC50, splenocyte assay, 3.8 pM cIL-23” value with cynomolgus IL-23 [4] was determined as 13.1 pM.

B2: P23IL81G2 (VHH)
VHH: EVQLVESGGGLVQPGGSLRLSCIASGLPFSTKSMGWFRQAPGKEREFVARISPGGTSRYYGDFVKGRFAISRDNAKNTTWLQMNSLKAEDTAVYYCASGERSTYIGSNYYRTNEYDYWGTGTQVTVSS
notes: p19- Nanobody
Take B2: the dissociation rate constant (koff) (as a rule, a measure of how fast the partners let go of each other) in assay [5] came out at 0.00034 s⁻¹. Further, in assay [6], the koff is 0.00039 s⁻¹ and the kon (in general, the rate constant with which the complex forms) stood at 520000 M⁻¹ s⁻¹. Also, in [7], the Kd (commonly the concentration at which binding is half-saturated) is 0.75 nM.

B3: P23IL81G2v11 (VHH)
VHH: EVQLLESGGGLVQPGGSLRLSCAASGLPFSTKSMGWFRQAPGKGREFVSRISPGGTSRYYGDFVKGRFTISRDNSKNTLYLQMNSLRAEDTAVYYCASGERSTYIGSNYYRTNEYDYWGQGTLVTVSS
notes: Final humanization variant of 81G2
On to B3, for which, in [6], the off-rate constant (koff) is 0.00031 s⁻¹ and the on-rate constant (kon) was determined as 610000 M⁻¹ s⁻¹. Further, the Kd in assay [7] was 0.51 nM.

B4: 23IL0038 (PEG40 form not stated) (bispecific antibody)
chain: EVQLVESGGGLVQAGGSLRLSCAASGRIFSLPASGNIFNLLTIAWHRQAPGMQRELVATINSGSRTNYADSVKGRFTISRDNAQKTVYLQMNNLKPEDTAVYYCQTSGSGSPNFWGQGTQVTVSSGGGGSGGGGSGGGGSGGGGSGGGGSGGGGSGGGGSEVQLVESGGGLVQPGGSLRLSCIASGLPFSTKSMGWFRQAPGKEREFVARISPGGTSRYYGDFVKGRFAISRDNAKNTTWLQMNSLKAEDTAVYYCASGERSTYIGSNYYRTNEYDYWGTGTQVTVSSGGGC
modifications: PEG40 on the C-terminal Cys of GGGC; branched or linear not stated for this assay
notes: also called P23IL0038; 119A3-81G2-PEG40
With B4, in assay [8], the half-inhibitory concentration (IC50) amounted to 0.032 nM.

B5: P23IL119A3V16-35GS-81G2V11-HSA (bispecific antibody)
chain: EVQLLESGGGLVQPGGSLRLSCAASGRIFSLPASGNIFNLLTIAWYRQAPGKGRELVATINSGSRTYYADSVKGRFTISRDNSKKTLYLQMNSLRPEDTAVYYCQTSGSGSPNFWGQGTLVTVSSGGGGSGGGGSGGGGSGGGGSGGGGSGGGGSGGGGSEVQLLESGGGLVQPGGSLRLSCAASGLPFSTKSMGWFRQAPGKGREFVSRISPGGTSRYYGDFVKGRFTISRDNSKNTLYLQMNSLRAEDTAVYYCASGERSTYIGSNYYRTNEYDYWGQGTLVTVSS
notes: also called P23IL0065; 23IL0065; not shown: full length human serum albumin fused directly to the C-terminus
On to B5, for which the 50% inhibitory concentration (IC50) in [1] worked out at 0.038 nM. For the same molecule, the “IC50, BA/F3 proliferation assay, 76 pM hIL-23” value in assay [2] was 125 pM. Further, the “IC50, splenocyte assay, 19 pM hIL-23” value in assay [3] came out at 4.6 pM. Also, the “IC50, splenocyte assay, 3.8 pM cIL-23” value with cynomolgus IL-23 [4] came to 6.7 pM.

B6: P23IL36A4 (VHH)
VHH: EVQLVESGGGLVQAGGSLRLSCVASERTFSSSAMGWFRQAPGKEREFVAAIGWSGGGFIHYGDSVKGRFTISADNGKNTVYLQMNSLKPEDTAVYYCAADSRLRGIALLKGSYDYRGQGTQVTVSS
notes: p19+ Nanobody; c-myc, His6-tagged; also called P23IL 36A4 (=36G2); 36G2
Consider B6, for which the dissociation rate constant (koff) in assay [9] came out at 0.0009 s⁻¹; with cynomolgus IL-23 [14], 0.0012 s⁻¹. Also, the 50% inhibitory concentration (IC50) with cynomolgus IL-23 [10] was found to be 0.47 nM; in [13], 1 nM. Also, the “IC50, mouse splenocyte assay (mIL-22)” value in assay [11] worked out at 3120 pM; with cynomolgus IL-23 [12] it was 11 nM.

B7: P23IL37D5 (VHH)
VHH: EVQLVESGGGLVQPGGSLRLSCAASGFTLDYLAIGWFRQAPGKEREGVSCVSSSGQYTYYADSVKGRFTISRDNAESTVYLQMNSLKPEDTAVYYCATDPECYRVRGYYNGEYDYWGQGTQVTVSS
notes: p19+ Nanobody; c-myc, His6-tagged; also called PIL2337D5
For the molecule B7, the “IC50, BAF3 proliferation assay, 76 pM hIL-23” value in assay [15] was 13 pM. Besides, in [16], the Kd is 0.57 nM. For the same molecule, the koff in assay [16] was found to be 0.00018 s⁻¹; in assay [9] it was 0.00019 s⁻¹; in the assay with cynomolgus IL-23 [14], 0.00051 s⁻¹. Further, the half-inhibitory concentration (IC50) was found to be 0.0384 nM in [17], 0.32 nM with cynomolgus IL-23 [10], 0.11 nM in assay [13] and 0.176 nM in [18]. Further, the entries for the “IC50, mouse splenocyte assay (mIL-22)” value (in assay [11]; with cynomolgus IL-23 [12]) were 17 pM and 0.288 nM, respectively. Further, the “IC50, splenocyte assay, 19 pM hIL-23” value in assay [19] amounted to 24 pM. Also, the “IC50, splenocyte assay, 3.8 pM cIL-23” value with cynomolgus IL-23 [20] stood at 212 pM.

B8: P23IL37D5v16 (VHH)
VHH: B7 VHH with V5L, E44G, A75S, E76K, S77N, K87R, Q121L
notes: Humanization variant of 37D5
In the case of B8, the 50% inhibitory concentration (IC50) in assay [17] turned out to be 0.0888 nM; in [18] it was 0.044 nM.

B9: P23IL119A3-BASIC (VHH)
VHH: EVQLVESGGGLVQPGGSLRLSCAASGRIFSLPASGNIFNLLTIAWYRQAPGMQRELVATINSGSRTNYADSVKGRFTISRDNAQKTLYLQMNNLRPEDTAVYYCQTSGSGSPNFWGQGTLVTVSS
As for B9, the koff in assay [21] is 0.002 s⁻¹; in assay [24] it was 0.0052 s⁻¹. For the same molecule, the results for the concentration for half-maximal inhibition (IC50) (in assay [22]; with cynomolgus IL-23 [23]) were 1.47 nM and 0.73 nM, respectively. The “IC50, splenocyte assay hIL-23” value in [25] was 37.3 nM. Also, in the assay with cynomolgus IL-23 [26], the “IC50, splenocyte assay cIL-23” value came out at 66.6 nM.

(Values after patent publication US20110053865A1 (Ablynx, published 2011).)
